Assays:
[1] = biological target: T1, hnRNP A2* (hnRNP A2 isoform lacking exons 7-9) (Rattus norvegicus); test: EMSA; per text; conditions: tags: His6 (pET-28b, E. coli BL21(DE3)); label: 5' 32P
Experimental: (§1) 80 nM oligonucleotides having 5′ ends labeled with [γ-³²P] ATP (³²P-labeled oligonucleotides) were incubated with 400 nM recombinant hnRNP A2* at 4° C. for 30 min in a binding buffer [10 mM Tris(hydroxymethyl)metyl aminomethane (Tris) (pH 8.0), 1 mM ethylenediaminetetraacetic acid (EDTA), and 150 mM KCl] and resolved on a 8% (wt/vol) native PAGE gel. The gel was then visualized by phosphoimaging using a Typhoon PhosphorImager.
(§2) The cDNA encoding hnRNP A2* was cloned and expressed in Escherichia coli, producing a recombinant protein with the expected molecular mass (FIG. 2A). The exons 7-9 coded the glycine-rich domain (GRD) and provided additional DNA/RNA binding sites in addition to two RNA recognition sites (RRM). […] This is in contrast to hnRNP which has a broad DNA-binding specificity with the consensus sequence N(A,C,T)(C,T)(A,G)G(C,G,T)(A,T)NNN. […] The binding specificity of hnRNP A2* was further verified by constructing 10 mutant variants of the MBS, each carrying a single mutation to cytosine at each nucleotide. All the mutations within the MBS abolished the bindings except the mutations of thymines in the vicinity of GGG (FIG. 2E).

[2] = biological target: T1, hnRNP A2* (hnRNP A2 isoform lacking …); test: competition; very low or no binding; conditions: tags: His6 (pET-28b, E. coli BL21(DE3))
Experimental: as §1, §2

[3] = biological target: 28-kDa telomeric DNA-binding protein (hnRNP A2*), rat liver nuclear matrix (Rattus norvegicus); test: Southwestern blot; conditions: label: 5' 32P
28-kDa telomeric DNA-binding protein (hnRNP A2*), rat liver nuclear matrix (Rattus norvegicus), sequence (chain, as listed by the source): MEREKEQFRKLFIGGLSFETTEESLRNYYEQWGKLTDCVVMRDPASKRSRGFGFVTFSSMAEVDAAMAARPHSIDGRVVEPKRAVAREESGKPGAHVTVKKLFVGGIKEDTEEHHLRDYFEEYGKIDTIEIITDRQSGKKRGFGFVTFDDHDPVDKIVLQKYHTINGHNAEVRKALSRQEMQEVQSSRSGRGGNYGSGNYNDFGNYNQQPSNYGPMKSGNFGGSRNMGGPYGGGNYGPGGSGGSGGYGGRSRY

[4] = biological target: T1, hnRNP A2* (hnRNP A2 isoform lacking …); test: EMSA; 10 mM Tris pH 8.0, 1 mM EDTA, 150 mM KCl, 4 C; 400 nM protein, 80 nM DNA; conditions: tags: His6 (pET-28b, E. coli BL21(DE3)); label: 5' 32P
Experimental: as §1, §2

[5] = biological target: T1, hnRNP A2* (hnRNP A2 isoform lacking …); test: EMSA; per text: all MBS mutations abolish except thymines near GGG; conditions: tags: His6 (pET-28b, E. coli BL21(DE3)); label: 5' 32P
Experimental: as §1, §2

[6] = biological target: T1, hnRNP A2* (hnRNP A2 isoform lacking …); test: EMSA; G-quadruplex substrate complex; stimulates telomerase; conditions: tags: His6 (pET-28b, E. coli BL21(DE3)); G4
Experimental: as §1

[7] = biological target: T1, hnRNP A2* (hnRNP A2 isoform lacking …); test: EMSA; minimal binding site; conditions: tags: His6 (pET-28b, E. coli BL21(DE3)); label: 5' 32P
Experimental: as §1, §2

[8] = biological target: T1, hnRNP A2* (hnRNP A2 isoform lacking …); test: EMSA; 150 mM KCl, 4 C; conditions: tags: His6 (pET-28b, E. coli BL21(DE3)); label: 5' 32P
Experimental: as §1, §2

[9] = biological target: T1, hnRNP A2* (hnRNP A2 isoform lacking …); test: EMSA; thymine next to G-tract tolerated; conditions: tags: His6 (pET-28b, E. coli BL21(DE3)); label: 5' 32P
Experimental: as §1, §2

T1 sequence (chain, as listed by the source): as above

B1: 15-mer G5C (ssDNA)
DNA: TAGGCTTAGGGTTAG
modifications: [none]
Question: Does B1 bind [1]?
Answer: Result: no binding

B2: (TTAGAG)3 (ssDNA)
DNA: TTAGAGTTAGAGTTAGAG
Question: Does B2 bind [2]?
Answer: Result: no binding

B3: (TTAGGG)3 (ssDNA)
DNA: TTAGGGTTAGGGTTAGGG
Question: Does B3 bind [3]?
Answer: Result: binds

Question: Does B3 bind [4]?
Answer: Result: binds

B4: 15-mer A2C (ssDNA)
DNA: TCGGGTTAGGGTTAG
modifications: [none]
Question: Does B4 bind [5]?
Answer: Result: no binding

B5: 15-mer G4C (ssDNA)
DNA: TAGCGTTAGGGTTAG
modifications: [none]
Question: Does B5 bind [1]?
Answer: Result: no binding

B6: TSG4 (structured_DNA)
DNA: GGGCTAGGGCTAGGGCTAGGGAGTT
Question: Does B6 bind [6]?
Answer: Result: binds

B7: 15-mer G9C (ssDNA)
DNA: TAGGGTTACGGTTAG
modifications: [none]
Question: Does B7 bind [1]?
Answer: Result: no binding

B8: 15-mer A8C (ssDNA)
DNA: TAGGGTTCGGGTTAG
modifications: [none]
Question: Does B8 bind [1]?
Answer: Result: no binding

B9: MBS (ssDNA)
DNA: TAGGGTTAGG
Question: Does B9 bind [7]?
Answer: Result: binds

B10: 15-mer G3C (ssDNA)
DNA: TACGGTTAGGGTTAG
modifications: [none]
Question: Does B10 bind [1]?
Answer: Result: no binding

B11: (TTGGGG)3 (ssDNA)
DNA: TTGGGGTTGGGGTTGGGG
Question: Does B11 bind [2]?
Answer: Result: no binding

B12: (TAAGGG)3 (ssDNA)
DNA: TAAGGGTAAGGGTAAGGG
Question: Does B12 bind [2]?
Answer: Result: no binding

B13: double-stranded (TTAGGG)3 (dsDNA)
DNA 1: TTAGGGTTAGGGTTAGGG
DNA 2: CCCTAACCCTAACCCTAA
Question: Does B13 bind [2]?
Answer: Result: no binding

B14: MBS-containing 15-mer W (ssDNA)
DNA: TAGGGTTAGGGTTAG
Question: Does B14 bind [8]?
Answer: Result: binds

B15: 15-mer T6C (ssDNA)
DNA: TAGGGCTAGGGTTAG
modifications: [none]
Question: Does B15 bind [9]?
Answer: Result: binds

B16: 15-mer G10C (ssDNA)
DNA: TAGGGTTAGCGTTAG
modifications: [none]
Question: Does B16 bind [1]?
Answer: Result: no binding

From US20150307569, “HETEROGENEOUS NUCLEAR RIBONUCLEOPROTEIN A2* (HNRNP A2*) AND NUCLEIC ACID ENCODING THE SAME” (Institute of Zoology, Chinese Academy of Sciences, published 2015)
